Measurements taken from a protein production outcome set (Wang et al. 2014).

Assay: label from the status in PepcDB records

Sequence	protein production
MENSFLSSKLVFLLAIALVLFLNTELSFLTAEGASDSNSKVYIVYLGQREHDDPELLTASHHQMLESLLQSKEDAHNSMIYSYQHGFSGFAALLTSSQAKKISEHPEVIHVIPNRILKLKTTRIWDHLGLSPIPTSFSSSSSAKAKGLLHNTSMGSEAIIGVVDSGIWPESKVFNDQGLGPIPKRWRGKCRSGEKFNATMHCNKKLIGAKYYQSGLLAMNGGKFNRIIIRDFKSNRDATGHGTHTATIAGGSFVPNASFYGLARGTVRGGAPRARIASYKACWNVVGWGGICSSADMWKAYDDAIHDQVDVLSVSIGASIPEDSERVDFIAAFHAVAKGITVVAAAGNDGSGAQTICNVAPWLLTVAATTLDRSFPTKITLGNNQTFFGKTILEFDSTHPSSIAGRGVVAVILAKKPDDRPAPDNSYIFTDYEIGTHILQYIRTTRSPTVRISAATTLTGQPATPKVAAFSSRGPNSVSPAILKPDIAAPGVSILAAVSPLDPGAFNGFKLHSGTSMSTPVVSGIIVLLKSLHPKWSPAAMRSALVTTAWRTSPSGEPIFAQGSNKKLADPFDYGGGLVNPEKAAKPGLVYDMGIKDYINYMCSAGYNDSSISRVLGKKTKCPIPKPSMLDINLPSITIPNLEKEVTLTRTVTNVGPIKSVYRAVIESPLGITLTVNPTILVFKSAAKRVLTFSVKAKTSHKVNSGYFFGSLTWTDGVHDVTIPVSVKTTISM	failed
MTEIERKFLVATFPDGELHAVPLRQGYLTTPTDSIELRLRQQGTEYFMTLKSEGGLSRQEYEIQIDVTQFEMLWPATEGRRVEKTRYSGKLPDGQLFELDVFAGHLSPLMLVEVEFLSEDAAQAFIPPPWFGEEVTEDKRYKNKALALSIP	not failed
MDEQSVESIAEVFRCFICMEKLRDARLCPHCSKLCCFSCIRRWLTEQRAQCPHCRAPLQLRELVNCRWAEEVTQQLDTLQLCSLTKHEENEKDKCENHHEKLSVFCWTCKKCICHQCALWGGMHGGHTFKPL	failed
MASSISAAEVKVVPEEYNFLQKHVAFFDRNKDGIVYPSETFQGFRAIGCGYLLSTFAAVFINISLSSKTRPGKGFSFSFPIEVKNVRLGIHSSDSGVYDKDGRFVASKFEEIFAKHAHTHRDALTSKELKELLKANREPNDCKGGILAFGEWKVLYNLCKDKSGLLHKEIVRAVYDGSLFEQLEKQRSSKTP	failed
MNIQALLSEKVSQALIAAGAPADCEPQVRQSAKVQFGDYQANGVMAVAKKLGMAPRQLAEQVLSHLDLNGIANKVEIAGPGFINIFLDPAFLADNVNRALQSERLG	not failed
MSLYDLKPNEKGRIKDIKGDERLSKRLSALGFIEGTEVEVKMMAPLGDPILVNVRGFNIAIRKNDAKNIFLKEAKLEHHHHHH	not failed
MAASFAFLRDVRPYKTSWRVQVKVLHSWCQYTNMTGETLKLVLVNSQGVKIHASVKKDLVSKYVNNLPLNEWTFIETFALNHASGQFRPTGHLYKMSFVTGTQVIRCDS	not failed
MKTARPGKLKRQEEQASFISWRFALLCGCILLALVGLIMRTAYLQVINPDKLVREGDMRSLRVQEVPTARGMISDRSGRPLAVSVPVNAVWADPKELIEQGGISLDTRWKALSDALEIPLDQLATRINANPKGRFVYLARQVNPAIGDYIRKLKLPGIHLRQESRRYYPAGQVMAHIIGVTNIDGQGIEGVEKSFDRWLTGQPGERTVRKDHYGRVIEDISSVDSQAAHNLVLSVDERLQALVYRELNNAVAFNKAESGTAVLVDVNTGEVLAMANSPSYNPNNLTGTPKDAMRNRAITDIFEPGSTVKPMVVMTALQHGVVKENSVLNTLPYFVNGHQIKDVARYAELSVTGILQKSSNVGVSKLALAMPSSALVDTYSRFGFGKATNLGLVGESSGLYPKKQRWSDIERATFSFGYGLMVTPLQLARVYATIGSMGVYRPLSITRVDPPVAGERIFPEPLVRTVVHMMESVALPGGGGTKAAIKGYRIAIKTGTAKKVGPDGKYMDRYLAYTAGVAPASNPRFALVVVINDPQAGKYYGGAVSAPVFGAIMGGVLRTMNIEPDALPTGDKSELVINTKEGSGGRS	not failed
MKNSENDYIQSLFQILPGLLTAFLVACLSKFLAIWLPSLGAATIAILLGIFLGNTFVRGANLNRGTKVAESKLLEFSVVLLGTTVTFQTIAQIGLQGVAFILIQMSLTIIFAYLIGKKLAFSDNMSLLMAGGNAVCGSSAIASIAPAIQADEEEKGQIITLVNLLGTVLMLTLPILSGILYGTNLLARSALIGGTLQSVGQVVASANMVNENAVQLAMLFKIMRIVLLVAVVYLFGRFKQSKTAESEAELVEVTKKSSALPWYVVGFFIACVFNSLIHFPVVISETAHFFSSWFEITALAAIGLRLDFKKFFQEGKRFLIYGLSVGTVQVVLAILLLALLQF	failed
MITFIGHVSKDVNVVDGKREIAYGGGVVMGAITSSLLGVKTKVITKCTREDVSKFSFLRDNGVEVVFLKSPRTTSIENRYGSDPDTRESFLISAADPFTESDLAFIEGEAVHINPLWYGEFPEDLIPVLRRKVMFLSADAQGFVRVPENEKLVYRDWEMKEKYLKYLDLFKVDSREAETLTGTNDLRESCRIIRSFGAKIILATHASGVIVFDGNFYEASFRSWSLEGRTGRGDTCTAAFLVGFVFKKMSIEKATKFAAAVTSVKMRHPGPLRREDLEAISGDQYF	not failed
MSDHPFSIQANLYLQLRHFIRLGMSKAEAIKLITYNNAKILGIEDKLGSLEKGKWASLVVWNGDPFNLENYPTHVFAEGELIHEANLLEHHHHHH	failed
MNAEDFPTPDADVESVTPETLKSRIDDGESVTILDARMSGDYEEWHIDGENVESINVPYFHFLEDELDADIIADVPDDREVTVLCAKGGASEYVAGTLADRGYDVHHLEDGMNGWARIYETVEVTDYDGAGTLLQYQRPSSGCLGYLVYDDGEAAIIDPLRAFADRYFDDADELGVDLKYALDTHIHADHISGVRGLDAAGVEGVIPAAAVDRGVTYAAEQSSASPVSQARQDADDLTTAEDGDTFEVGDVTIETVATPGHTTGMTSYLVDDSLLATGDGLFIESVARPDLEEGDEGAPDAARMLYESLQERVLTLPDDTLIGGAHFSDAAEPANDGTYTAPIGQLVEEMDALTMDEDDFVETILADMPPRPANYEDIIATNLGQNTVDDEEAFTLELGPNNCAASQESLAGD	failed
MKHIHIIGIGGTFMGGLAAIAKEAGFEVSGCDAKMYPPMSTQLEALGIDVYEGFDAAQLDEFKADVYVIGNVAKRGMDVVEAILNLGLPYISGPQWLSENVLHHHWVLGVAGTHGKTTTASMLAWVLEYAGLAPGFLIGGVPENFGVSARLPQTPRQDPNSQSPFFVIEADEYDTAFFDKRSKFVHYRPRTAVLNNLEFDHADIFADLGAIQTQFHYLVRTVPSEGLIVCNGRQQSLQDTLDKGCWTPVEKFGTEHGWQAGEANADGSFDVLLDGKTAGRVKWDLMGRHNRMNALAVIAAARHVGVDIQTACEALGAFKNVKRRMEIKGTANGITVYDDFAHHPTAIETTIQGLRQRVGGARILAVLEPRSNTMKLGTMKSALPVSLKEADQVFCYAGGVDWDVAEALAPLGGRLNVGKDFDAFVAEIVKNAEVGDHILVMSNGGFGGIHGKLLEALR	not failed
MDSTGASQIVSALDVIYSPKSNNSQRQEAQKFLDEVKLCSESPFWGYEIALQNPTNSILKYFGLGLLDHAVKKNWNDYDEGKRVALRKWVMELNFGVQDYDTRYIKEKLATLWVEVAKRTWGEALKQTNPTEEQLLTSWVDMDNNLFELWNINQSSRELALIIFRILFEDVFLLDDLIVLKRMTVIQPLCVMIVCPIEVFAIKYKFSDKWTKFKANEEGWFSVWIPELNNALQQNNSEYIIRLLETLKTCLNWPLTEVIVRNDVLSSLLTCLSSNIPRAQSMALDSIHILLTRPYSNESHYQMTIDRVFDNMDLLDSVYESLLFDPTDDIDETKYPIIKKFVDMISCLYVCVPKIKETNGQIQKYFKLVLKTTYNPSLIVSGLTLDLWCTCLRNDEYLPKLEKYVIPDLLQFAADALVYYEQIDGHISKKFAEIDFQSKSEFQTFCSTYRKRIRDIIRLISCVELDLTYDWLNNRLNNYFSSPFGQQVLSSTFLDHKLEPYLGALSQYMIVECFINGCIRWKIWYPTGDDYDEKLDSILQKLEILSNQLIALNLREPLLLKKQIQNFALFLTMLKDNVLFTLLEKIITSATMDYPEINLEERGAESDAVRDLRYACGIELNRMALLMPESLKKIYPDLESVIARIMPNLSYHEKISFKSFLLIIVLKSSLDMKEERFAAIVDPELLAWSDKTTVVGLSDLHWFMERLGIVQIAEYFQRRDIDENSDLLSIPIDDEGKELKSELTKRWQSLFPVRATRMFIHYSMQSIKTDEEFKMLQDLWRPRIVPILPYITRLLYQLQSYHDPDNWKGLPTVVQSFVKYSTIERFWEAGASNKSKDEFIDEHMKAMQTLRDFADSVGHIIRYTREYTLLVLSAISSLGSVFYLLDESPDLLLNSIAIFKPGSNEISPGVSTHGWKHIMNIAIRPILKGCPKDCLGKFMPAFLPKLFEILDLLLCQKWSSHMNDMDMNPVPTDDDQMTEEILEENLLRQLTTVVVRIVIDCVGQGNANPNSAKSRLNNHQMEMRKIIFNDLNTLAPFLKLLNHLISFKDTKCSFNSILVMKCCLTSVLNQNNTVDEYFTFEVMKNLLLNVLCNSAFKDSFHEALYAFTVIFLTLCKEYPSARAFLFEISNGYNIDELYRNLRSVDEYKTQRALMIDFIDWVKSTSGKEDGNVDHAGDERKRQEKREAILKKANERLIKKNKENGDMLDDPNIEDGAVGNLFDDN	failed
MVITLSRLYVHPVKSMRGLQLSHAQVSSSGLAFDRVFMITEPDGTFITARQYPKMVMFTPALMSDGLYLTAPDGESASIRFNDFLANAEPTEVWGNHFTALIAPAAINNWLSGYFQREVQLRWLGPELTRRVKPMPEIPLSFADGFPYLLINEASFKELQQRCPGSIKLEQFRPNLLVTGASAFAEDSWQVIRVGDITFDLVKPCSRCVLTTVSVERGRKHPTGEPLQTLQTFRTAENGDIDFGQNMVARNSGIIRVGDEVEVLSTKPPRPYGAGAVVESLAAPEDKSKAVAIEYNGIRFNGNNQQVLLEQLEQQNIRIPYSCRAGICGSCRITLINGEVAPLKQSAIGNDGTILCCSCIPKGDITLSGK	failed
MRIDTQEQLVTLLNALFEKVGINLEQVSKLDNYGVMFSVPGTMKPLIATLKTVTTPTNWNNETNLGHYKSADENWLLCLKPAPHSVFCIATVCSLHEKHLEQYIETSEKKQDRRIAAEHGDPEAQYYTAQDCEDKTEALFWYRKAGEQNHYWALYQIALMYEAGEGGLEKDFAQAILWRGKAAEQGSDAAARDLAEMYEEGTADIPQDLTLAIFWYERWLELSPVMRRMIKPKIKSLKAALSQRMNE	failed
MSSLKDNYQSKVKAYQPSPPYVLNCIKAFLVGGLICTIGQAFQNFYMAVFHFDEKTAGNPTVATLILISALLTGLGVYDRIGQFAGAGSAVPVTGFANSMTSAALEHKSEGYVLGVGTNMFKLAGNVIVFGVVAAYIVGMIRFAFDKLF	failed
MPTTDLRKAQLQIHFCVLLWGITAILGKLITLQALPLVWWRMLIVVVALALWPRVWRGLRGLSGRVVLGYCGIGALVALHWLTFYGAIKLANASVAATCIALAPVFTAVIEPLVTHRPFRPRELLFGLAVLPGVALVVGGVPDGMRAGVVVGAISAVFVGLFGSLNKRMVAHADPLTVTALELGAGTLTLTLLAPAMPLLLPALHGDLLVVPSLHDGVLLLALSLACTLLPFALALVALRHLSAYSVQLVTNLEPVYAIVLAIALLGEQRELTLQFYLGVAIILGAVFLHPVLERRRTVAHPELLGTAEAKNIVD	failed
MKRSNTVRLVVSKEQHEVLKRLGIATAKCWNEVNWLRMKQYKEGKRVDFGITEKAVYEKYKSVLRVNAQQVARKNAEDWRSFFSLTREKKEGKLPSWFKPRPPGYWKDGRLIVIIRNDRYTVDERNRVVYLKDFNLSLKFKGRLKWHGKQGRLEIIYDEARKIWYAHIPVEVETEKVKEGIKASIDLGIVNLATVYVEDGSWYLFKGGSALSHYENYSKRITIVQKTLHRHRQRRSRRLKLLHEKRSRFLKHALNSMVRRIMEILREKNVGEVVVGYPKEIAKHHGNKLTVNFWNYSYIIKRLEDIGEELGIKVITVDEAYTSKTCSLCGEAHEDGRVKRGLFVCPRTRKAINADLNGAINILHIPESRGSEGNFHRGIGVIGLKTQPVTLSDLSKIKNHYNYSISDYTILHYIQPLEHHHHHH	not failed
